Laboratory results taken from patent US20120277120.

Experiments:
Test in all cases: cell_activity
[1] = tested on: ZFN.gfp (CompoZr zinc finger nuclease heterodimer ZFN.gfp.1/ZFN.gfp.2) (synthetic); conditions: yeast, three integrated target copies; 0 of 96 with empty vector; monomer to half-site assignment not stated; scale: of 96 colonies with all three loci replaced
[2] = tested on: SFC1-specific ZFN (synthetic); conditions: yeast, pCUT015 alone; 76% with dual nuclease plasmid pCUT032
[3] = tested on: FS-specific TALEN (synthetic); conditions: yeast; 3 clones single, 1 double integration; half-sites not stated; scale: clone of 48 with all three ADS cassettes integrated
[4] = tested on: YJR030c-specific ZFN (synthetic); conditions: yeast, pCUT016 alone; 63% with dual nuclease plasmid pCUT032

“ACAACTACAACAGCCACAACGTCTATATCATGGCCGACAAGCA (double strand) [ZFN.gfp target in emgfp-delta]” gave an activity [1] of 23.
Work on SFC1 ORF target yielded an activity (% GFP-positive) [2] of 50.
“TAGTGGAGGAATTAAAAGAGGAAGTTAAGAAGGAATTGATAACTATCAA (double strand) [FS TALEN target site]” showed an activity [3] of 1.
With YJR030c ORF target the activity (% ADE2-positive) [4] was 5.
